*1 amine or outer side, *2 acyl side, *3 side chain or, on linkers, in order; H or OH if unused. Where no end group is shown, it is not given here. Side-chain parts run from the residue outwards. The star is where a group is joined. C16 diacid = O=C(O)CCCCCCCCCCCCCCC(=O)*; γGlu = O=C(O)[C@H](CCC(=O)[*:2])N[*:1]; AEEA = NCCOCCOCC(=O)O
T1: human GIP receptor (human, UniProt P48546 22-466)
T1 sequence (looked up): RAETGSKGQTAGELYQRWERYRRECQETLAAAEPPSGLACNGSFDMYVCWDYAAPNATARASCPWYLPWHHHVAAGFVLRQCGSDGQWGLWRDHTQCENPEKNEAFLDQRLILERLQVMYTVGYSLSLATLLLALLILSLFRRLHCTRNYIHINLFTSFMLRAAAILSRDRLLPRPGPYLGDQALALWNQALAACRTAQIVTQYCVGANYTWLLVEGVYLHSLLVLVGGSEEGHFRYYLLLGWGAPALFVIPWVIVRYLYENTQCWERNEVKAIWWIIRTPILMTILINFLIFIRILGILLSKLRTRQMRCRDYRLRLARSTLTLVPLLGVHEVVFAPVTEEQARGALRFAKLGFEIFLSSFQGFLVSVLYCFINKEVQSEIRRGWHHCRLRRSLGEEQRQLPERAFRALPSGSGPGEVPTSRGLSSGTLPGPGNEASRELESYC


These binders were tested against T1, human GIP receptor (assay: cell-based or functional assay).

Binder	CisBio cAMP agonism % Efficacy	CisBio cAMP antagonism % inhib	CisBio cAMP antagonism IC50	CisBio cAMP antagonism pIC50	DiscoveRx cAMP antagonism % inhib	DiscoveRx cAMP antagonism IC50	DiscoveRx cAMP antagonism log IC50	DiscoveRx cAMP agonism Emax
EGTFISDYSIAMDRIK([AEEA-γGlu-C16 diacid])QQDFVNWLLAQR-NH2 (not fully specified (residue 1)) [AT373]	0%	91%	12.6 nM	7.9	94%	10 nM	-8 log M	–
PGTFISDYSIAMDRIKQQDFVNWLLAQR (HELM PEPTIDE1{P.G.T.F.I.S.D.Y.S.I.A.M.D.R.I.K.Q.Q.D.F.V.N.W.L.L.A.Q.R.[am]}|PEPTIDE2{[O=C(O)CCCCCCCCCCCCCCC(=O)[*:2]].[gGlu].[O=C(COCCOCCN[*:1])[*:2]]}$PEPTIDE1,PEPTIDE2,16:R3-3:R2$$$V2.0; N-terminus assumed; SMILES CC[C@H](C)[C@H](NC(=O)[C@H](CO)NC(=O)[C@H](Cc1ccc(O)cc1)NC(=O)[C@H](CC(=O)O)NC(=O)[C@H](CO)NC(=O)[C@@H](NC(=O)[C@H](Cc1ccccc1)NC(=O)[C@@H](NC(=O)CNC(=O)[C@@H]1CCCN1)[C@@H](C)O)[C@@H](C)CC)C(=O)N[C@@H](C)C(=O)N[C@@H](CCSC)C(=O)N[C@@H](CC(=O)O)C(=O)N[C@@H](CCCNC(=N)N)C(=O)N[C@H](C(=O)N[C@@H](CCCCNC(=O)COCCOCCNC(=O)CC[C@H](NC(=O)CCCCCCCCCCCCCCC(=O)O)C(=O)O)C(=O)N[C@@H](CCC(N)=O)C(=O)N[C@@H](CCC(N)=O)C(=O)N[C@@H](CC(=O)O)C(=O)N[C@@H](Cc1ccccc1)C(=O)N[C@H](C(=O)N[C@@H](CC(N)=O)C(=O)N[C@@H](Cc1c[nH]c2ccccc12)C(=O)N[C@@H](CC(C)C)C(=O)N[C@@H](CC(C)C)C(=O)N[C@@H](C)C(=O)N[C@@H](CCC(N)=O)C(=O)N[C@@H](CCCNC(=N)N)C(N)=O)C(C)C)[C@@H](C)CC) [AT512]	0%	73%	79.4 nM	7.1	80%	168 nM	-6.8 log M	–
SGTFISDYSIAMDRIK([AEEA-AEEA-γGlu-C16 diacid])QQDFVNWLLAQR-NH2 (N-terminus assumed; SMILES CC[C@H](C)[C@H](NC(=O)[C@H](CO)NC(=O)[C@H](Cc1ccc(O)cc1)NC(=O)[C@H](CC(=O)O)NC(=O)[C@H](CO)NC(=O)[C@@H](NC(=O)[C@H](Cc1ccccc1)NC(=O)[C@@H](NC(=O)CNC(=O)[C@@H](N)CO)[C@@H](C)O)[C@@H](C)CC)C(=O)N[C@@H](C)C(=O)N[C@@H](CCSC)C(=O)N[C@@H](CC(=O)O)C(=O)N[C@@H](CCCNC(=N)N)C(=O)N[C@H](C(=O)N[C@@H](CCCCNC(=O)COCCOCCNC(=O)COCCOCCNC(=O)CC[C@H](NC(=O)CCCCCCCCCCCCCCC(=O)O)C(=O)O)C(=O)N[C@@H](CCC(N)=O)C(=O)N[C@@H](CCC(N)=O)C(=O)N[C@@H](CC(=O)O)C(=O)N[C@@H](Cc1ccccc1)C(=O)N[C@H](C(=O)N[C@@H](CC(N)=O)C(=O)N[C@@H](Cc1c[nH]c2ccccc12)C(=O)N[C@@H](CC(C)C)C(=O)N[C@@H](CC(C)C)C(=O)N[C@@H](C)C(=O)N[C@@H](CCC(N)=O)C(=O)N[C@@H](CCCNC(=N)N)C(N)=O)C(C)C)[C@@H](C)CC) [AT516]	0%	88%	27.1 nM	7.6	100%	31 nM	-7.5 log M	–
SGTFISDYSIAMDRIKQQDFVNWLLAQR (HELM PEPTIDE1{S.G.T.F.I.S.D.Y.S.I.A.M.D.R.I.K.Q.Q.D.F.V.N.W.L.L.A.Q.R}|PEPTIDE2{[O=C(O)CCCCCCCCCCCCCCC(=O)[*:2]].[gGlu]}$PEPTIDE1,PEPTIDE2,16:R3-2:R2$$$V2.0; N-terminus assumed; SMILES CC[C@H](C)[C@H](NC(=O)[C@H](CO)NC(=O)[C@H](Cc1ccc(O)cc1)NC(=O)[C@H](CC(=O)O)NC(=O)[C@H](CO)NC(=O)[C@@H](NC(=O)[C@H](Cc1ccccc1)NC(=O)[C@@H](NC(=O)CNC(=O)[C@@H](N)CO)[C@@H](C)O)[C@@H](C)CC)C(=O)N[C@@H](C)C(=O)N[C@@H](CCSC)C(=O)N[C@@H](CC(=O)O)C(=O)N[C@@H](CCCNC(=N)N)C(=O)N[C@H](C(=O)N[C@@H](CCCCNC(=O)CC[C@H](NC(=O)CCCCCCCCCCCCCCC(=O)O)C(=O)O)C(=O)N[C@@H](CCC(N)=O)C(=O)N[C@@H](CCC(N)=O)C(=O)N[C@@H](CC(=O)O)C(=O)N[C@@H](Cc1ccccc1)C(=O)N[C@H](C(=O)N[C@@H](CC(N)=O)C(=O)N[C@@H](Cc1c[nH]c2ccccc12)C(=O)N[C@@H](CC(C)C)C(=O)N[C@@H](CC(C)C)C(=O)N[C@@H](C)C(=O)N[C@@H](CCC(N)=O)C(=O)N[C@@H](CCCNC(=N)N)C(=O)O)C(C)C)[C@@H](C)CC) [AT265]	8%	73%	58.4 nM	7.2	–	33 nM	-7.5 log M	10
PGTFISDYSIAMDRIK([AEEA-AEEA-γGlu-C16 diacid])QQDFVNWLLAQR-NH2 (N-terminus assumed; SMILES CC[C@H](C)[C@H](NC(=O)[C@H](CO)NC(=O)[C@H](Cc1ccc(O)cc1)NC(=O)[C@H](CC(=O)O)NC(=O)[C@H](CO)NC(=O)[C@@H](NC(=O)[C@H](Cc1ccccc1)NC(=O)[C@@H](NC(=O)CNC(=O)[C@@H]1CCCN1)[C@@H](C)O)[C@@H](C)CC)C(=O)N[C@@H](C)C(=O)N[C@@H](CCSC)C(=O)N[C@@H](CC(=O)O)C(=O)N[C@@H](CCCNC(=N)N)C(=O)N[C@H](C(=O)N[C@@H](CCCCNC(=O)COCCOCCNC(=O)COCCOCCNC(=O)CC[C@H](NC(=O)CCCCCCCCCCCCCCC(=O)O)C(=O)O)C(=O)N[C@@H](CCC(N)=O)C(=O)N[C@@H](CCC(N)=O)C(=O)N[C@@H](CC(=O)O)C(=O)N[C@@H](Cc1ccccc1)C(=O)N[C@H](C(=O)N[C@@H](CC(N)=O)C(=O)N[C@@H](Cc1c[nH]c2ccccc12)C(=O)N[C@@H](CC(C)C)C(=O)N[C@@H](CC(C)C)C(=O)N[C@@H](C)C(=O)N[C@@H](CCC(N)=O)C(=O)N[C@@H](CCCNC(=N)N)C(N)=O)C(C)C)[C@@H](C)CC) [AT518]	0%	71%	85.8 nM	7.1	100%	346 nM	-6.5 log M	5
GGTFISDYSIAMDRIK([AEEA-AEEA-γGlu-C16 diacid])QQDFVNWLLAQR-NH2 (N-terminus assumed; SMILES CC[C@H](C)[C@H](NC(=O)[C@H](CO)NC(=O)[C@H](Cc1ccc(O)cc1)NC(=O)[C@H](CC(=O)O)NC(=O)[C@H](CO)NC(=O)[C@@H](NC(=O)[C@H](Cc1ccccc1)NC(=O)[C@@H](NC(=O)CNC(=O)CN)[C@@H](C)O)[C@@H](C)CC)C(=O)N[C@@H](C)C(=O)N[C@@H](CCSC)C(=O)N[C@@H](CC(=O)O)C(=O)N[C@@H](CCCNC(=N)N)C(=O)N[C@H](C(=O)N[C@@H](CCCCNC(=O)COCCOCCNC(=O)COCCOCCNC(=O)CC[C@H](NC(=O)CCCCCCCCCCCCCCC(=O)O)C(=O)O)C(=O)N[C@@H](CCC(N)=O)C(=O)N[C@@H](CCC(N)=O)C(=O)N[C@@H](CC(=O)O)C(=O)N[C@@H](Cc1ccccc1)C(=O)N[C@H](C(=O)N[C@@H](CC(N)=O)C(=O)N[C@@H](Cc1c[nH]c2ccccc12)C(=O)N[C@@H](CC(C)C)C(=O)N[C@@H](CC(C)C)C(=O)N[C@@H](C)C(=O)N[C@@H](CCC(N)=O)C(=O)N[C@@H](CCCNC(=N)N)C(N)=O)C(C)C)[C@@H](C)CC) [AT514]	0%	86%	31.6 nM	7.5	80%	39 nM	-7.4 log M	–
EGTFISDYSIAMDRIK([AEEA-AEEA-γGlu-C16 diacid])QQDFVNWLLAQR-NH2 (not fully specified (residue 1)) [AT374]	0%	86%	17.1 nM	7.8	100%	12 nM	-7.9 log M	–

From patent US20220025010A1 (ANTAG THERAPEUTICS, published 2022)
